{"source": "patent US20040115741A1", "target": "HM1.24 antigen (human) (UniProt Q10589)", "sequence (Q10589 1-161 limits assumed)": "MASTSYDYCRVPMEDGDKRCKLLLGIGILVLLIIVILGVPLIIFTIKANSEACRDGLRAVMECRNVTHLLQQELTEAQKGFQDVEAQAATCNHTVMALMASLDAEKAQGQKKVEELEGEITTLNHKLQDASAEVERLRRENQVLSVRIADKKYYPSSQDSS", "test": "flow cytometry on KPMM2 cells, control antibody"}
{"substance": "control antibody human IgG1 (hIgG1), Human IgG1, Kappa (SIGMA Cat. No. I3889)", "values": [{"measurement": "Geo Mean of fluorescence intensity", "value": 17.3}]}
